Assays:
[1] = molecular target: T1, recombinant human erythroferrone (ERFE) (human, UniProt Q4G0M1 29-354); assay: sandwich ELISA, biotinylated detection antibody; coating antibodies 7H4, 17A5, 4C1
T1 construct: Secreted from transfected HEK293F cells and purified from the supernatant; also called human ERFE; hERFE
T1 sequence: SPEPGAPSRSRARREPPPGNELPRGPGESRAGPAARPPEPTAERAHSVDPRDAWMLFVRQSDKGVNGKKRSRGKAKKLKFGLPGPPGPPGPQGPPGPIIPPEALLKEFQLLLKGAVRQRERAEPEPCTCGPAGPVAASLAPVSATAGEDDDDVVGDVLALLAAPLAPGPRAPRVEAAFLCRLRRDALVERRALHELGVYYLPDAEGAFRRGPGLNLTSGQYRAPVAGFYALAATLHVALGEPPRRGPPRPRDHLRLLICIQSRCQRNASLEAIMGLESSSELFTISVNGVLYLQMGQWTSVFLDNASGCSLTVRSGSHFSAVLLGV

[2] = molecular target: T1, recombinant human erythroferrone (ERFE); assay: sandwich ELISA, biotinylated detection antibody (also used as coating antibody); coating antibodies 7H4, 17A5, 4C1

B1: monoclonal antibody 9B12 (ATCC Accession Number PTA-123882) (antibody, mouse IgG1, kappa, V domains shown)
VH: QVQLQQSGPELVKPGASVRISCKASGYTFTSYYIHWVKQRPGQGLEWIAWIYPGNVNTEYNEKFKGKATLTADESSSTAYMQLSSLTSEDSAVFFCAREGITTNALDYWGQGTSVTVSS
VL: DIQMTQTTSSLSASLGDRVTISCRASQDISNYLNWYQQKPDGTVKLLIYYTSRLYSGVPSRFSGNGSGSDYSLTISNLEQEDIATYFCQQGHTLWTFGGGTKLEIKR
notes: Mouse IgG1 from hybridoma; Biotinylated when used as detection antibody
Question: Does B1 bind [1]?
Answer: binds

B2: monoclonal antibody 17A5 (ATCC Accession Number PTA-123883) (antibody, mouse IgG1, kappa, V domains shown)
VH: QVQLQQPGSVLVRPGASVKLSCKASGYTFTSYWMHWAKQRPGQGLEWIGEIHPKSGDTNHNEKFKGKATLTVDTSSNTAYVDLSSLTSEDSAVYYCAREGITTVGFDLWGAGTTVTVSS
VL: QIVLTQSPAIMSASPGQKVTLTCSASSSVSYMNWVQQKSGTSPKRWIYDTSKLASGVPARFSGSGSGTSYSLTISSVEAEDAATYYCQQWSSHPYTFGGGTKLEIKR
notes: as for B1
Question: Does B2 bind [2]?
Answer: binds
